In the experiment the target is T1, PYR1 (Arabidopsis thaliana, UniProt O49686).
T1 construct: expressed in transfected cells; host or cells: S. cerevisiae strain Y190
T1 sequence (O49686 1-191): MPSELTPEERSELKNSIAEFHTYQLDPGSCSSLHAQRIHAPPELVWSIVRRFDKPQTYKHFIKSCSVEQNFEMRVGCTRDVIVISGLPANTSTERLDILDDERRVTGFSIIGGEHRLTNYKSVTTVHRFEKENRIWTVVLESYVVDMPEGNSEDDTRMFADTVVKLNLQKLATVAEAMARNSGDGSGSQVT
Nature of the experiment: Yeast two hybrid of pACT-HAB1 site saturation mutants with pBD-PYR1 on 10 μM ABA, β-galactosidase staining. As to conditions: S. cerevisiae Y190, 10 μM ABA; dead = lack of detectable staining in comparison to wild type control. The format is cell-based. Also noted: key: x: Mutations in HAB1 that disrupt HAB1 interaction with PYR1. From the text: To systematically define mutations in HAB1 that disrupt its binding to PYR1, we used site saturation mutagenesis to create a collection all possible single amino acid substitutions in 20 residues lining the PYR1 binding interface, and then assayed the ability of each mutant to bind PYR1 using the yeast two hybrid assay described above. We targeted the following residues for mutagenesis: R199, 5200, E201, E203, H245, G246, G247, S322, E323, T324, K381, I383, Q384, W385, Q386, R389, F391, G392, V393, and Y404. To create the collection of mutations, mutagenic “NNK” site directed mutagenesis primers were synthesized for each of the 20 positions and the primers used in QuickChange site-directed mutagenesis reactions using a previously described pACT-HAB1 template (Park et al., 2009). We note that this clone uses a HAB1 cDNA lacking its three N-terminal amino acids. The reaction products were digested with DpnI, and transformed into competent Escherichia coli DH5α cells and plasmid DNA for 96 colonies per site was isolated using Bioneer AccuPrep® Plasmid Mini Extraction Kit (Alameda, Calif.) and sequenced to identify mutants. This process identified most of the 19 desired mutations per target site; the remaining mutations were constructed directly using specific mutagenic primers. To interrogate the effects of the mutations on PYR1-HAB1 interactions, the mutant clones were individually transformed into S. cerevisiae strain Y190 containing pBD-PYR1 (Park et al., 2009). Yeast transformants were selected for the presence of plasmids on selective SD (-Leu,-Trp) plates and then spotted onto SD (-Leu,-Trp) agar plates supplemented with 10 μM ABA. After incubating the test plates at 30° C. for two days, the colonies were lysed with chloroform and stained to reveal […] expression levels. “Dead” mutants were defined by lack of detectable staining in comparison to a wild type pBD-PYR1/pACT-HAB1 control. This screening effort defined 163 mutations that disrupt the ABA-induced PYR1/HAB1 interaction (Table 2).

B1: W385E: HAB1 mutant (protein, UniProt Q9CAJ0 23-511, looked up, variant W385E)
Protein phosphatase 2C 16: SPVEITQLKNVTDAADLLSDSENQSFCNGGTECTMEDVSELEEVGEQDLLKTLSDTRSGSSNVFDEDDVLSVVEDNSAVISEGLLVVDAGSELSLSNTAMEIDNGRVLATAIIVGESSIEQVPTAEVLIAGVNQDTNTSEVVIRLPDENSNHLVKGRSVYELDCIPLWGTVSIQGNRSEMEDAFAVSPHFLKLPIKMLMGDHEGMSPSLTHLTGHFFGVYDGHGGHKVADYCRDRLHFALAEEIERIKDELCKRNTGEGRQVQWDKVFTSCFLTVDGEIEGKIGRAVVGSSDKVLEAVASETVGSTAVVALVCSSHIVVSNCGDSRAVLFRGKEAMPLSVDHKPDREDEYARIENAGGKVIQEQGARVFGVLAMSRSIGDRYLKPYVIPEPEVTFMPRSREDECLILASDGLWDVMNNQEVCEIARRRILMWHKKNGAPPLAERGKGIDPACQAAADYLSMLALQKGSKDNISIIVIDLKAQRKFKTRT
For B1, the “Mutations in HAB1 that disrupt HAB1 interaction with PYR1” value (“Mutations” for short) is listed as “x”.

B2: R389A: HAB1 mutant (protein, UniProt Q9CAJ0 23-511, looked up, variant R389A)
Protein phosphatase 2C 16: SPVEITQLKNVTDAADLLSDSENQSFCNGGTECTMEDVSELEEVGEQDLLKTLSDTRSGSSNVFDEDDVLSVVEDNSAVISEGLLVVDAGSELSLSNTAMEIDNGRVLATAIIVGESSIEQVPTAEVLIAGVNQDTNTSEVVIRLPDENSNHLVKGRSVYELDCIPLWGTVSIQGNRSEMEDAFAVSPHFLKLPIKMLMGDHEGMSPSLTHLTGHFFGVYDGHGGHKVADYCRDRLHFALAEEIERIKDELCKRNTGEGRQVQWDKVFTSCFLTVDGEIEGKIGRAVVGSSDKVLEAVASETVGSTAVVALVCSSHIVVSNCGDSRAVLFRGKEAMPLSVDHKPDREDEYARIENAGGKVIQWQGAAVFGVLAMSRSIGDRYLKPYVIPEPEVTFMPRSREDECLILASDGLWDVMNNQEVCEIARRRILMWHKKNGAPPLAERGKGIDPACQAAADYLSMLALQKGSKDNISIIVIDLKAQRKFKTRT
As to B2, the “Mutations” value was “x”.

B3: W385I: HAB1 mutant (protein, UniProt Q9CAJ0 23-511, looked up, variant W385I)
Protein phosphatase 2C 16: SPVEITQLKNVTDAADLLSDSENQSFCNGGTECTMEDVSELEEVGEQDLLKTLSDTRSGSSNVFDEDDVLSVVEDNSAVISEGLLVVDAGSELSLSNTAMEIDNGRVLATAIIVGESSIEQVPTAEVLIAGVNQDTNTSEVVIRLPDENSNHLVKGRSVYELDCIPLWGTVSIQGNRSEMEDAFAVSPHFLKLPIKMLMGDHEGMSPSLTHLTGHFFGVYDGHGGHKVADYCRDRLHFALAEEIERIKDELCKRNTGEGRQVQWDKVFTSCFLTVDGEIEGKIGRAVVGSSDKVLEAVASETVGSTAVVALVCSSHIVVSNCGDSRAVLFRGKEAMPLSVDHKPDREDEYARIENAGGKVIQIQGARVFGVLAMSRSIGDRYLKPYVIPEPEVTFMPRSREDECLILASDGLWDVMNNQEVCEIARRRILMWHKKNGAPPLAERGKGIDPACQAAADYLSMLALQKGSKDNISIIVIDLKAQRKFKTRT
On to B3, for which the “Mutations” value is recorded as “x”.

B4: W385F: HAB1 mutant (protein, UniProt Q9CAJ0 23-511, looked up, variant W385F)
Protein phosphatase 2C 16: SPVEITQLKNVTDAADLLSDSENQSFCNGGTECTMEDVSELEEVGEQDLLKTLSDTRSGSSNVFDEDDVLSVVEDNSAVISEGLLVVDAGSELSLSNTAMEIDNGRVLATAIIVGESSIEQVPTAEVLIAGVNQDTNTSEVVIRLPDENSNHLVKGRSVYELDCIPLWGTVSIQGNRSEMEDAFAVSPHFLKLPIKMLMGDHEGMSPSLTHLTGHFFGVYDGHGGHKVADYCRDRLHFALAEEIERIKDELCKRNTGEGRQVQWDKVFTSCFLTVDGEIEGKIGRAVVGSSDKVLEAVASETVGSTAVVALVCSSHIVVSNCGDSRAVLFRGKEAMPLSVDHKPDREDEYARIENAGGKVIQFQGARVFGVLAMSRSIGDRYLKPYVIPEPEVTFMPRSREDECLILASDGLWDVMNNQEVCEIARRRILMWHKKNGAPPLAERGKGIDPACQAAADYLSMLALQKGSKDNISIIVIDLKAQRKFKTRT
On to B4, for which the “Mutations” value is recorded as “x”.

B5: W385H: HAB1 mutant (protein, UniProt Q9CAJ0 23-511, looked up, variant W385H)
Protein phosphatase 2C 16: SPVEITQLKNVTDAADLLSDSENQSFCNGGTECTMEDVSELEEVGEQDLLKTLSDTRSGSSNVFDEDDVLSVVEDNSAVISEGLLVVDAGSELSLSNTAMEIDNGRVLATAIIVGESSIEQVPTAEVLIAGVNQDTNTSEVVIRLPDENSNHLVKGRSVYELDCIPLWGTVSIQGNRSEMEDAFAVSPHFLKLPIKMLMGDHEGMSPSLTHLTGHFFGVYDGHGGHKVADYCRDRLHFALAEEIERIKDELCKRNTGEGRQVQWDKVFTSCFLTVDGEIEGKIGRAVVGSSDKVLEAVASETVGSTAVVALVCSSHIVVSNCGDSRAVLFRGKEAMPLSVDHKPDREDEYARIENAGGKVIQHQGARVFGVLAMSRSIGDRYLKPYVIPEPEVTFMPRSREDECLILASDGLWDVMNNQEVCEIARRRILMWHKKNGAPPLAERGKGIDPACQAAADYLSMLALQKGSKDNISIIVIDLKAQRKFKTRT
Take B5: the “Mutations” value is “x”.

B6: W385G: HAB1 mutant (protein, UniProt Q9CAJ0 23-511, looked up, variant W385G)
Protein phosphatase 2C 16: SPVEITQLKNVTDAADLLSDSENQSFCNGGTECTMEDVSELEEVGEQDLLKTLSDTRSGSSNVFDEDDVLSVVEDNSAVISEGLLVVDAGSELSLSNTAMEIDNGRVLATAIIVGESSIEQVPTAEVLIAGVNQDTNTSEVVIRLPDENSNHLVKGRSVYELDCIPLWGTVSIQGNRSEMEDAFAVSPHFLKLPIKMLMGDHEGMSPSLTHLTGHFFGVYDGHGGHKVADYCRDRLHFALAEEIERIKDELCKRNTGEGRQVQWDKVFTSCFLTVDGEIEGKIGRAVVGSSDKVLEAVASETVGSTAVVALVCSSHIVVSNCGDSRAVLFRGKEAMPLSVDHKPDREDEYARIENAGGKVIQGQGARVFGVLAMSRSIGDRYLKPYVIPEPEVTFMPRSREDECLILASDGLWDVMNNQEVCEIARRRILMWHKKNGAPPLAERGKGIDPACQAAADYLSMLALQKGSKDNISIIVIDLKAQRKFKTRT
For B6, the “Mutations” value is “x”.

B7: R389L: HAB1 mutant (protein, UniProt Q9CAJ0 23-511, looked up, variant R389L)
Protein phosphatase 2C 16: SPVEITQLKNVTDAADLLSDSENQSFCNGGTECTMEDVSELEEVGEQDLLKTLSDTRSGSSNVFDEDDVLSVVEDNSAVISEGLLVVDAGSELSLSNTAMEIDNGRVLATAIIVGESSIEQVPTAEVLIAGVNQDTNTSEVVIRLPDENSNHLVKGRSVYELDCIPLWGTVSIQGNRSEMEDAFAVSPHFLKLPIKMLMGDHEGMSPSLTHLTGHFFGVYDGHGGHKVADYCRDRLHFALAEEIERIKDELCKRNTGEGRQVQWDKVFTSCFLTVDGEIEGKIGRAVVGSSDKVLEAVASETVGSTAVVALVCSSHIVVSNCGDSRAVLFRGKEAMPLSVDHKPDREDEYARIENAGGKVIQWQGALVFGVLAMSRSIGDRYLKPYVIPEPEVTFMPRSREDECLILASDGLWDVMNNQEVCEIARRRILMWHKKNGAPPLAERGKGIDPACQAAADYLSMLALQKGSKDNISIIVIDLKAQRKFKTRT
B7: the “Mutations” value is listed as “x”.

B8: W385K: HAB1 mutant (protein, UniProt Q9CAJ0 23-511, looked up, variant W385K)
Protein phosphatase 2C 16: SPVEITQLKNVTDAADLLSDSENQSFCNGGTECTMEDVSELEEVGEQDLLKTLSDTRSGSSNVFDEDDVLSVVEDNSAVISEGLLVVDAGSELSLSNTAMEIDNGRVLATAIIVGESSIEQVPTAEVLIAGVNQDTNTSEVVIRLPDENSNHLVKGRSVYELDCIPLWGTVSIQGNRSEMEDAFAVSPHFLKLPIKMLMGDHEGMSPSLTHLTGHFFGVYDGHGGHKVADYCRDRLHFALAEEIERIKDELCKRNTGEGRQVQWDKVFTSCFLTVDGEIEGKIGRAVVGSSDKVLEAVASETVGSTAVVALVCSSHIVVSNCGDSRAVLFRGKEAMPLSVDHKPDREDEYARIENAGGKVIQKQGARVFGVLAMSRSIGDRYLKPYVIPEPEVTFMPRSREDECLILASDGLWDVMNNQEVCEIARRRILMWHKKNGAPPLAERGKGIDPACQAAADYLSMLALQKGSKDNISIIVIDLKAQRKFKTRT
For B8, the “Mutations” value is on record as “x”.

B9: R389M: HAB1 mutant (protein, UniProt Q9CAJ0 23-511, looked up, variant R389M)
Protein phosphatase 2C 16: SPVEITQLKNVTDAADLLSDSENQSFCNGGTECTMEDVSELEEVGEQDLLKTLSDTRSGSSNVFDEDDVLSVVEDNSAVISEGLLVVDAGSELSLSNTAMEIDNGRVLATAIIVGESSIEQVPTAEVLIAGVNQDTNTSEVVIRLPDENSNHLVKGRSVYELDCIPLWGTVSIQGNRSEMEDAFAVSPHFLKLPIKMLMGDHEGMSPSLTHLTGHFFGVYDGHGGHKVADYCRDRLHFALAEEIERIKDELCKRNTGEGRQVQWDKVFTSCFLTVDGEIEGKIGRAVVGSSDKVLEAVASETVGSTAVVALVCSSHIVVSNCGDSRAVLFRGKEAMPLSVDHKPDREDEYARIENAGGKVIQWQGAMVFGVLAMSRSIGDRYLKPYVIPEPEVTFMPRSREDECLILASDGLWDVMNNQEVCEIARRRILMWHKKNGAPPLAERGKGIDPACQAAADYLSMLALQKGSKDNISIIVIDLKAQRKFKTRT
Consider B9, for which the “Mutations” value is “x”.
